{"source": "patent US20130137856A1", "about": "“PROTEIN BINDING DOMAINS STABILIZING FUNCTIONAL CONFORMATIONAL STATES OF GPCRS AND USES THEREOF” (priority 2010, published 2013)", "molecules": {"B1": {"name": "NB80: β2AR-specific nanobody, SEQ ID NO:4; lead nanobody stabilizing the active state (protein, listed as Lama glama)", "VHH": "QVQLQESGGGLVQAGGSLRLSCAASGSIFSINTMGWYRQAPGKQRELVAAIHSGGSTNYANSVKGRFTISRDNAANTVYLQMNSLKPEDTAVYYCNVKDYGAVLYEYDYWGQGTQVTVSS"}}, "key": {"β2AR [1]": {"target": "T1, β2AR (Homo sapiens, UniProt P07550)", "test": "Temperature-induced aggregation of β2AR analyzed by SEC", "conditions": "DDM-solubilized β2AR, 10 μM isoproterenol, 2:1 molar excess of Nb80, 10 minutes at increasing temperatures", "protocol": "(§1) The effect of conformational selective nanobodies on the thermostability and the subsequent aggregation of the β2AR receptor was analyzed using a fluorescent thermal stability assay (FIG. 13) and size exclusion chromatography (FIG. 14).\nWe also analyzed the effect of Nb80 on the thermal unfolding and aggregation of the agonist-bound receptor by size exclusion chromatography (SEC). For this experiment, dodecylmaltoside-solubilized receptor was pre-incubated with isoproterenol (10 μM) in the presence or absence of a 2:1 molar excess of Nb80 for 45 minutes at RT. Samples were next incubated for 10 minutes at increasing temperatures and subsequently analyzed by SEC (FIG. 14)."}, "[2]": {"test": "Effect of Nb80 on ligand affinity of an unrelated receptor", "type": "binding", "conditions": "data not shown"}, "β2AR [3]": {"target": "T1, β2AR", "test": "[3H]-DHA competition binding on Sf9 insect cell membranes expressing β2AR, with or without nanobody", "set-up": "recombinant β2AR truncated at Gly365 (β2AR-365); made in house; host or cells: Sf9 insect cells (membranes)", "conditions": "agonist competition binding with versus without nanobody", "description": "Panel b: Dose-response competition binding experiments on Sf9 insect cell membranes expressing β2AR."}, "β2AR [4]": {"target": "T1, β2AR", "test": "Monobromobimane (mBBr) fluorescence of labeled purified β2AR", "type": "biochemical", "description": "To investigate the effect of nanobodies on movement of the cytoplasmic domain of TM6 we labeled purified β2AR at C265 with monobromobimane (mBB-β2AR). […] In mBB-β2AR, the addition of agonist together with G protein results in larger fluorescent changes than either agonist or G protein alone. This is compatible with the cooperative interactions observed in agonist competition binding assays (Yao et al. 2009).\nPurified β2AR was reacted with 1:1 equivalent of monobromobimane (mBBr, Invitrogen) in 100 mM NaCl, 20 mM HEPES, pH 7.5, 0.1% dodecyl maltoside and incubated overnight on ice in the dark. The fluorophore-labeled receptor was purified right before use by gel filtration on a desalting column equilibrated with the same buffer. […] All experiments were performed at 25° C. […] To determine the effect of nanobodies and ligands, three individual labeled protein samples were incubated with 1 μM nanobody or 10 μM Isoproterenol or both. Emission spectra of the samples were taken after 1 hour incubation."}, "β2AR-T4L": {"system": "β2AR-T4L", "test": "[3H]-DHA competition binding on β2AR-T4L reconstituted in HDL particles", "set-up": "species or system human"}, "β2AR [5]": {"target": "T1, β2AR", "test": "Bimane fluorescence spectroscopy on mBB-β2AR reconstituted in HDL particles", "conditions": "Nb80 with 10 μM isoproterenol"}, "β2AR [6]": {"target": "T1, β2AR", "test": "Fluorescent (CPM) thermal stability assay of detergent-solubilized β2AR", "protocol": "as §1\nThe fluorescent thermal stability assay makes use of the thiol-specific fluorochrome N-[4-(7-diethylamino-4-methyl-3-coumarinyl)phenyl]maleimide (CPM) to measure the chemical reactivity of the native cysteines embedded in the protein interior as a sensor for the overall integrity of the folder state of membrane proteins (Alexandrov et al. 2008). For the fluorescent thermal stability assay, detergent-solubilized receptor (in 0.1% dodecylmaltoside, 100 mM NaCl and 20 mM Hepes pH 7.5) was pre-incubated with isoproterenol (10 μM) in the presence or absence of a 2:1 molar excess of Nb80 for one hour at RT. Samples were then mixed with CPM fluorophore and incubated for two minutes at temperatures ranging from 10° C. to 94° C. and fluorescence emission was collected. […] Unfolding transitions could be described by a simple two-state model, including the native (folded) and the denaturated state, representing the lower and upper plateaus of the melting curves."}, "β2AR [7]": {"target": "T1, β2AR", "test": "[3H]-DHA competition binding on β2AR reconstituted in HDL particles", "set-up": "recombinant β2AR truncated at Gly365 (β2AR-365); made in house; host or cells: Sf9 insect cells (membranes)"}, "β2AR [8]": {"target": "T1, β2AR", "test": "Competition radioligand binding on commercial insect cell membranes with full-length human β2AR, Nb80 versus irrelevant Nb", "conditions": "radioligand displacement with Nb80 versus irrelevant Nanobody"}, "human β1AR": {"target": "human β1AR (Homo sapiens, UniProt P08588)", "sequence (P08588 whole entry)": "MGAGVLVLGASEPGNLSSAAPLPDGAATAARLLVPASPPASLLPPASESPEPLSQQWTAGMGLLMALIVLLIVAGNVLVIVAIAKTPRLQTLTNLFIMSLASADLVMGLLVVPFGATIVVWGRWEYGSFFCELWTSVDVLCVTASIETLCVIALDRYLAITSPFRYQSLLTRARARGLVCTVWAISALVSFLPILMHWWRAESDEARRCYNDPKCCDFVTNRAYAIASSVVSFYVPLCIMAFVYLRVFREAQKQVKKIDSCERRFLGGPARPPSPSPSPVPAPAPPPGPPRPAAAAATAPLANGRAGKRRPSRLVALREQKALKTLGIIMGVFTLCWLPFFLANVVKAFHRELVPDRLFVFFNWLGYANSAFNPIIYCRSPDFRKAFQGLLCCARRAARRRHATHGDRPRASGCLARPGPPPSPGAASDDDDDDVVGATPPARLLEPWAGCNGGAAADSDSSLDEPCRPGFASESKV", "test": "[3H]-DHA competition binding on β1AR with and without Nb80", "description": "Active state stabilizing Nanobodies that are cross-reactive to related receptors can be used as a tool to stabilize a conformational state of those related receptors. […] Using the PISA server (Krissinel & Henrick, 2007) and based on the crystal structure of the Nb80-β2AR complex, 30 β2AR AA residues were identified to interact with Nb80 in the β2AR-Nb80 interface. […] The remaining interface residues are lysines in β2AR and have been substituted by arginines in β1AR corresponding to conserved substitutions (shown in grey boxes in FIG. 17). It thus appears that both receptors share a very similar binding site for Nb80. Based on this analysis, we also measured the effect of Nb80 on the affinity of […] for the agonist isoproterenol and the inverse agonist CGP20712A (FIG. 18)."}, "β2AR [9]": {"system": "β2AR", "test": "Size exclusion chromatography of nanobody with purified detergent-solubilized β2AR", "type": "binding, human", "conditions": "20 μM β2AR bound to an agonist, 40 μM nanobody", "protocol": "The mixture was then analyzed by Size Exclusion Chromatography (SEC), which separates protein on the basis of size. Seven of the nanobodies bound to purified β2AR and migrated as a complex on SEC only in the presence of agonist and not an inverse agonist (an example is shown in FIG. 1, Panel a, FIG. 3 and FIG. 4).\nAgonist selective nanobodies were identified by size exclusion chromatography following incubation of 20 μM agonist or inverse agonist- (carazolol-) bound β2AR-365N for one hour at RT in the absence or presence of 40 μM nanobody."}}, "note": "“Also recorded” adds a separate entry of the source."}
{"molecule": "B1", "values": [{"measurement": "Effect on temperature-induced aggregation of the agonist-bound receptor", "setting": "β2AR [1]", "result": "protects the agonist-bound receptor against temperature-induced aggregation"}, {"measurement": "Effect of Nb80 on unrelated receptors", "setting": "[2]", "result": "No such effect"}, {"measurement": "Enhancement of β2AR affinity for the agonist isoproterenol in the presence of the nanobody", "setting": "β2AR [3]", "result": "two- to thirty-fold"}, {"measurement": "mBBr fluorescence change of isoproterenol-bound β2AR with nanobody (active state)", "setting": "β2AR [4]; 1 μM nanobody plus full agonist isoproterenol", "result": "larger changes were observed when both agonist and nanobody were added together; also recorded: stabilizes a more active state"}, {"measurement": "mBBr fluorescence change of β2AR with nanobody alone", "setting": "β2AR [4]; Nb80 alone, no agonist", "result": "relatively small changes in fluorescence"}, {"measurement": "Increase of isoproterenol affinity in the presence of Nb80", "setting": "β2AR-T4L; β2AR-T4L/HDL with Nb80 versus without", "result": 60, "unit": "fold"}, {"measurement": "Effect of Nb80 on affinity for the inverse agonist ICI-118,551", "setting": "β2AR-T4L; β2AR-T4L/HDL, ICI-118,551 competing against [3H]-DHA", "result": "does not increase the affinity"}, {"measurement": "Effect on bimane fluorescence in the presence of isoproterenol", "setting": "β2AR [5]", "result": "increased"}, {"measurement": "Apparent melting temperature for β2AR with Nb80", "setting": "β2AR [6]; DDM-solubilized, isoproterenol-bound β2AR, 2:1 molar excess of Nb80", "result": 24, "unit": "°C"}, {"measurement": "Increase of the melting temperature (Tm) of the agonist-bound receptor", "setting": "β2AR [6]; isoproterenol (10 μM)-bound β2AR with versus without Nb80", "result": 12, "unit": "°C"}, {"measurement": "Increase of isoproterenol affinity in the presence of Nb80", "setting": "β2AR [7]; β2AR/HDL with Nb80 versus without", "result": 95, "unit": "fold"}, {"measurement": "Effect of Nb80 on affinity for the inverse agonist ICI-118,551", "setting": "β2AR [7]; β2AR/HDL, ICI-118,551 competing against [3H]-DHA", "result": "does not increase the affinity; also recorded: little effect"}, {"measurement": "Effect of Nb80 on β2AR affinity for agonists and antagonists", "setting": "β2AR [8]", "result": "increases β2AR affinity for agonists but not for antagonists"}, {"measurement": "Conformational selectivity of Nb80 binding to human β1AR", "setting": "human β1AR", "result": "selectively binds the active conformation"}, {"measurement": "Effect of Nb80 on affinity of the agonist isoproterenol for β1AR", "setting": "human β1AR; [3H]-DHA competition", "result": "increased affinity"}, {"measurement": "Effect of Nb80 on β1AR affinity for CGP20712A", "setting": "human β1AR; [3H]-DHA competition", "result": "does not change the affinity"}, {"measurement": "Complex formation with agonist-bound β2AR on SEC", "setting": "β2AR [9]", "result": "β2AR-agonist-Nb80 complex formation"}]}
